Test results published in patent publication US9815881B2, “Method of inducing labor or treating pre-eclampsia by administering relaxin analogs” (The Board of Trustees of the Leland Stanford Junior …, priority 2009, dated 2017).
Blank lines part the entries; values can stand above or below the molecule they belong to. Where no end group is shown, it is not given here.

Tests used:
[1] = target: T1, LGR7 (Homo sapiens, UniProt Q9HBX9); assay: Receptor-activation analysis: cAMP production in LGR7-expressing HEK293T cells; format: cell-based; details: for pEC50 on the activation of LGR7: HEK293T cells stably expressing LGR7, mean ± S.E., ND = pEC50 not measurable; for LGR7-activation activity (result in words): LGR7-expressing HEK293T cells
T1 construct: HEK293T cells stably expressing recombinant LGR7 or LGR8; expressed in transfected cells
T1 sequence (Q9HBX9 1-757): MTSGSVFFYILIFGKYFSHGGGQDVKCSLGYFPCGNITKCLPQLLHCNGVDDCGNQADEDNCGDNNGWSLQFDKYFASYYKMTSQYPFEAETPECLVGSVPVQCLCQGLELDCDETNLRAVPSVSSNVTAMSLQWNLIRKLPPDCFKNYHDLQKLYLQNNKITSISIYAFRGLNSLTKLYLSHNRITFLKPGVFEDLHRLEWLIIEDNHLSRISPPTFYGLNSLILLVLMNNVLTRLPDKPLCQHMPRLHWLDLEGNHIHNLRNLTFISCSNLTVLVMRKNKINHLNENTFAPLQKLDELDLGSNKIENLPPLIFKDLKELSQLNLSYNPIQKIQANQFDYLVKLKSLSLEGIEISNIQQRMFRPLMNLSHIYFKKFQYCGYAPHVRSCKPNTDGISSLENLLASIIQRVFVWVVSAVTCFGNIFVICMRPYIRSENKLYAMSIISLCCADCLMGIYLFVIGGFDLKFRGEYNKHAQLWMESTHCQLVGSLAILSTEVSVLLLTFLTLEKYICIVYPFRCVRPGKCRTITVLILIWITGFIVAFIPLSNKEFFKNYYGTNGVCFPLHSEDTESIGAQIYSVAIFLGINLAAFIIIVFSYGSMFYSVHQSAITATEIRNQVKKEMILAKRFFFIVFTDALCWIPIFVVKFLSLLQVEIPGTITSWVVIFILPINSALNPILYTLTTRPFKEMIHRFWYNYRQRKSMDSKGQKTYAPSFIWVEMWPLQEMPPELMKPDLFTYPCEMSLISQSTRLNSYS
Protocol: (§1) The bioactivity of relaxin family peptides was determined based on the stimulation of adenylate cyclase activity in HEK293T cells stably expressing recombinant LGR7 or LGR8. Stable LGR7- or LGR8-expressing cells were maintained in Dulbecco's modified Eagle's medium/F-12 media supplemented with […] Zeocin (Invitrogen). After seeding at a density of 2×10^5 cells per well in 500 μl of Dulbecco's modified Eagle's medium/F-12 medium containing 0.1% bovine serum albumin in 48-well plates, cells were preincubated at 37° C. for 30 min in the presence of 0.25 mM 3-isobutyl-1-methylxanthine before treatment with increasing concentrations of peptides (from 0 to 100 nM) in quadruplicate. Twelve hours after treatment, the culture was reacted with acetic anhydride/triethylamine, and total cAMP content in cell lysates was measured using a specific cAMP radioimmunoassay. A nontagged human RLN2 peptide was used as a standard to verify the bioactivity of tagged RLN2 peptides.
(§2) Receptor-activation and receptor binding activity curves generated in nonlinear regression analyses (Prism; GraphPad Software, San Diego, Calif.) were evaluated relative to the samples without hormone treatment. In all cases data are reported as the mean±S.E. of assays in triplicate or quadruplicate. Statistically significant responses (p<0.05) were determined for each stimulated response to the average nonspecific response from control samples using analysis of variance and Student's t test.

[2] = target: T2, LGR8 (Homo sapiens, UniProt Q8WXD0); assay: Receptor-activation analysis: cAMP production in LGR8-expressing HEK293T cells; format: cell-based; details: for LGR8-activation activity (result in words): LGR8-expressing HEK293T cells
T2 construct: HEK293T cells stably expressing recombinant LGR7 or LGR8; expressed in transfected cells
Protocol: as §1, §2

T2 sequence (Q8WXD0 whole entry): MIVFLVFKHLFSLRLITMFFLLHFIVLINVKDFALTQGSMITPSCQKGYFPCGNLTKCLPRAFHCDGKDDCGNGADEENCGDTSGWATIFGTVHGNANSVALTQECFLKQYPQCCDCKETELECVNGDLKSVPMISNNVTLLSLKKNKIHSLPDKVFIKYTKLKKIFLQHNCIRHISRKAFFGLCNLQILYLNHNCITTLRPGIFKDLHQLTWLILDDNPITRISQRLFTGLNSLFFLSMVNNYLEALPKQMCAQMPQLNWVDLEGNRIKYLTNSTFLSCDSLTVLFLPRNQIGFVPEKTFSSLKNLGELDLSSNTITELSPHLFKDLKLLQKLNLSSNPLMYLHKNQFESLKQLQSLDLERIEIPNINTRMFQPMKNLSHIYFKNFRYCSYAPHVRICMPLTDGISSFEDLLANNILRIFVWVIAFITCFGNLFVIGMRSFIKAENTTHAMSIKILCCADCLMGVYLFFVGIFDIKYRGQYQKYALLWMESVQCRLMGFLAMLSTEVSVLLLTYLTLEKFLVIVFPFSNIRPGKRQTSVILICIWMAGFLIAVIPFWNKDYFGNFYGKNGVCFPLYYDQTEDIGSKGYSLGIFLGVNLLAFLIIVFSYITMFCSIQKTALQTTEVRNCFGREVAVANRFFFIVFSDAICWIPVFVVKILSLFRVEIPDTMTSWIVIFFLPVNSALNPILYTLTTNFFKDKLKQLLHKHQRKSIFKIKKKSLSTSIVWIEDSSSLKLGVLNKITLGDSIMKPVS

Molecule: RLN2 C-104: tagged RLN2 derived from the construct containing a 104-amino acid C domain sequence (chain 1 SWMEEVIKLCGRELVRAQIAICGMSTWSHHHHHH; chain 2 QLYSALANKCCHVGCTKRSLARFC; not fully specified; ends and bridges not checked)
pEC50 on the activation of LGR7 [1]: 8.74 ± 0.05

Molecule: RLN2 C-18: tagged RLN2 from construct with B and A chains linked by a truncated C-domain of 18 amino acids (chain 1 SWMEEVIKLCGRELVRAQIAICGMSTWSHHHHHH; chain 2 QLYSALANKCCHVGCTKRSLARFC; not fully specified; ends and bridges not checked)
pEC50 on the activation of LGR7 [1]: 8.74 ± 0.09

Molecule: RLN2 K^A17A: RLN2 mutant with alanine substitution at LysA17 of the A chain (chain 1 SWMEEVIKLCGRELVRAQIAICGMSTWSHHHHHH; chain 2 QLYSALANKCCHVGCTARSLARFC; not fully specified; ends and bridges not checked)
LGR7-activation activity (result in words) [1]: high potencies on the activation of both LGR7 and LGR8
LGR8-activation activity (result in words) [2]: significantly enhanced LGR8-activation activity
LGR8-activation activity (result in words) ([2]; listed as RLN2 KA17A): high potencies on the activation of both LGR7 and LGR8

Molecule: RLN2 T^A16A: RLN2 mutant with alanine substitution at ThrA16 of the A chain (chain 1 SWMEEVIKLCGRELVRAQIAICGMSTWSHHHHHH; chain 2 QLYSALANKCCHVGCAKRSLARFC; not fully specified; ends and bridges not checked)
LGR7-activation activity (result in words) [1]: high potencies on the activation of both LGR7 and LGR8
LGR8-activation activity (result in words) [2]: significantly enhanced LGR8-activation activity
LGR8-activation activity (result in words) ([2]; listed as RLN2 TA16A): high potencies on the activation of both LGR7 and LGR8

Molecule: RLN2 R^B12A: RLN2 mutant with alanine substitution of ArgB12 in the B chain RXXXRXXI motif (chain 1 SWMEEVIKLCGAELVRAQIAICGMSTWSHHHHHH; chain 2 QLYSALANKCCHVGCTKRSLARFC; not fully specified; ends and bridges not checked)
LGR7-activation activity (result in words) [1]: abolished the LGR7- and LGR8-activation activities
LGR8-activation activity (result in words) [2]: abolished the LGR7- and LGR8-activation activities

Molecule: RLN2 K^A17D: RLN2 mutant with aspartic acid at the LysA17 position (chain 1 SWMEEVIKLCGRELVRAQIAICGMSTWSHHHHHH; chain 2 QLYSALANKCCHVGCTDRSLARFC; not fully specified; ends and bridges not checked)
LGR8-activation activity (result in words) [2]: did not exhibit an enhanced LGR8-activation activity

Molecule: RLN2 K^A17G: RLN2 mutant with glycine at the LysA17 position (chain 1 SWMEEVIKLCGRELVRAQIAICGMSTWSHHHHHH; chain 2 QLYSALANKCCHVGCTGRSLARFC; not fully specified; ends and bridges not checked)
LGR8-activation activity (result in words) [2]: did not exhibit an enhanced LGR8-activation activity

Molecule: RLN2 K^A17Q: RLN2 mutant with glutamine at the LysA17 position (chain 1 SWMEEVIKLCGRELVRAQIAICGMSTWSHHHHHH; chain 2 QLYSALANKCCHVGCTQRSLARFC; not fully specified; ends and bridges not checked)
LGR8-activation activity (result in words) [2]: did not exhibit an enhanced LGR8-activation activity

Molecule: RLN2 R^B16A: RLN2 mutant with alanine substitution of ArgB16 in the B chain RXXXRXXI motif (chain 1 SWMEEVIKLCGRELVAAQIAICGMSTWSHHHHHH; chain 2 QLYSALANKCCHVGCTKRSLARFC; not fully specified; ends and bridges not checked)
LGR7-activation activity (result in words) [1]: abolished the LGR7- and LGR8-activation activities
LGR8-activation activity (result in words) [2]: abolished the LGR7- and LGR8-activation activities

B1: WT INSL3: recombinant wild type human insulin-like 3 (protein)
chain 1: PTPEMREKLCGHHFVRALVRVCGGPRWSTEAHHHHHH
chain 2: AAATNPARYCCLSGCTQQDLLTLCPY
modifications: left off: small tags and cut ends
pEC50 on the activation of LGR8 ([2]; HEK293T cells stably expressing LGR8, mean ± S.E., ND = pEC50 not measurable): 9.03 ± 0.05
LGR8-activation activity (result in words) [2]: selectively activated

Next, values leading:

pEC50 on the activation of LGR7 [1]: 8.66 ± 0.09
Molecule: WT RLN2 (His1): recombinant wild type RLN2 with N-terminal Myc tag and His6 tag at the N or C terminus of the B chain (position 1) (chain 1 SWMEEVIKLCGRELVRAQIAICGMSTWS; chain 2 QLYSALANKCCHVGCTKRSLARFC; not fully specified; ends and bridges not checked; also: N-terminal Myc tag)

pEC50 on the activation of LGR7 [1]: 8.66 ± 0.07
Molecule: RLN2 C-28: tagged RLN2 from construct with B and A chains linked by a truncated C-domain of 28 amino acids (chain 1 SWMEEVIKLCGRELVRAQIAICGMSTWSHHHHHH; chain 2 QLYSALANKCCHVGCTKRSLARFC; not fully specified; ends and bridges not checked)

pEC50 on the activation of LGR7 [1]: 7.73 ± 0.07
LGR7-activation activity (result in words) [1]: selectively activated
Molecule: WT RLN3: recombinant wild type human relaxin 3 [reference compound]

pEC50 on the activation of LGR7 [1]: 8.77 ± 0.10
Molecule: WT RLN2 (His2): recombinant wild type RLN2 with N-terminal Myc tag and His6 tag at the N or C terminus of the B chain (position 2) (chain 1 SWMEEVIKLCGRELVRAQIAICGMSTWS; chain 2 QLYSALANKCCHVGCTKRSLARFC; not fully specified; ends and bridges not checked; also: N-terminal Myc tag)

LGR7-activation activity (result in words) [1]: decreased LGR7-activation activities
Molecule: RLN2^A19-20: RLN2 mutant with alanine substitution at the A19-20 positions of the A chain (chain 1 SWMEEVIKLCGRELVRAQIAICGMSTWSHHHHHH; chain 2 QLYSALANKCCHVGCTKRAAARFC; not fully specified; ends and bridges not checked)
